Results taken from US20190048060A1.
Each block holds one substance with its values, some of them ahead of it.

Experiments:
[1] = system: ZFN SBS57071 (engineered); assay: cell_activity; settings: pair with SBS57531, B2M ZFN only, human T cells
[2] = system: ZFN SBS53853 (engineered); assay: cell_activity; settings: pair with SBS55266, TCRA ZFN only, human T cells
[3] = system: ZFN SBS68812 (engineered); assay: cell_activity; settings: pair with SBS68813, multiplex with B2M and CISH ZFNs plus GFP donor, T cells
[4] = system: ZFN SBS68876 (engineered); assay: cell_activity; settings: pair with SBS68877, human T cells
[5] = system: ZFN SBS57531 (engineered); assay: cell_activity; settings: pair with SBS57071, B2M ZFN only, human T cells
human CD19 (human) = human CD19 (human) (UniProt P15391); assay: cell-based or functional assay
[6] = system: ZFN SBS59489 (engineered); assay: cell_activity; settings: pair with SBS59488, multiplex with TRAC and B2M ZFNs plus GFP donor, T cells
[7] = system: ZFN SBS59488 (engineered); assay: cell_activity; settings: pair with SBS59489, multiplex with TRAC and B2M ZFNs plus GFP donor, T cells

Substance: GCCACGGAGCGAGACATCTCGGCCCGAA (double strand) [B2M site 57071]
activity [1]: 86.6 % indels

Substance: AACAGGTAAGACAGGGGTCTAGCCTGGG (double strand) [TCRA site 53853]
activity [2]: 88.3 % indels

Substance: CTCCTGAAAGTGGCCGGGTTTAATCTGC (double strand) [TCRA site 68812/68876]
activity [3]: 93 % knockout | activity (% knockout (CD3 loss)) [4]: 97

Substance: GAGTAGCGCGAGCACAGCTAAGGCCACG (double strand) [B2M site 57531]
activity [5]: 86.6 % indels

CD19+ K562 cells remaining after co-culture with CAR T cells at effector:target 2:1 (CAR inserted at the B2M gene) (human CD19 (human)): 0.4% | CD19+ K562 cells remaining after co-culture with CAR T cells at effector:target 2:1 (CAR inserted at the TCRA gene) (human CD19 (human)): 0.1%
Substance: FMC63-CD8BBZ (CD19 CAR) (from UniProt P01732 138-206; Q07011 214-255; P20963 52-164)

Substance: GAGGAGGTGGCAGAGGGTACCCCAGCCC (double strand) [CISH site 59489]
activity [6]: 98 % knockout

Substance: GGAAGGCCCCAGCAGGCAAGGGCTGCAT (double strand) [CISH site 59488]
activity [7]: 98 % knockout
